Laboratory results reported in patent US20240166768A1 (YEDA RESEARCH AND DEVELOPMENT, published 2024).

Experiments:
[1] = target: T1, ROI-1 peptide of MMP14 (I-A loop); assay: peptide validation ELISA: antibody plated, biotinylated peptide titrated, streptavidin-HRP; the concentration is that of the peptide
T1 construct: also called 'ROI-peptide'; 'Peptide (ROI)'

BSA = BSA (bovine, UniProt P02769); assay: ELISA heatmap, OD630
Description: ELISA reactions were carried out using flat-bottom MaxiSorp™ 96-well plates (Invitrogen). Antigen coating was performed in PBS at 1001 per well and left overnight at 4° C. For standard dose response ELISA assays, antigens were plated at a concentration of 1 μg/ml. For comparative ELISA assays with multiple antigen targets, antigens were plated at a constant molar concentration of 50 nM. The plates were washed 5 times with washing buffer (1×PBS with 0.05% Tween-20 (Sigma-Aldrich)) and incubated with 1001 blocking buffer (1×PBS with 1% BSA) for 1 h at room temperature. The blocking solution was subsequently replaced by serial dilutions of either mono- or polyclonal antibodies or serum samples for 2.5 h at RT. For standard dose response ELISA assays, antibodies were introduced over a range of dilutions whereas for ELISA screens, antibodies were introduced at 100 nM. Serum samples were assayed at a dilution of 1:100. Plates were washed 5 times with washing buffer and then incubated with anti-human IgG secondary antibody conjugated to horseradish peroxidase (HRP) (Jackson Immuno Research) in PBS at a 1:5,000 dilution. After washing the plates for additional 5 times, the plates were developed using TMB (Thermo Fisher) and absorbance was measured at 630 nm with an ELISA microplate reader (Synergy HTX plate reader, Biotek).
Strikingly, in 3/4 patients, monoclonal antibodies that bound MMP14 with various degrees of effectiveness and specificity were detected, confirming the analysis using polyclonal patient-derived antibodies. In order to further examine the specificity of the monoclonal antibodies, the binding activity of the antibodies was tested in different dilutions by ELISA.

Chain of BSA (P02769 25-607 limits assumed): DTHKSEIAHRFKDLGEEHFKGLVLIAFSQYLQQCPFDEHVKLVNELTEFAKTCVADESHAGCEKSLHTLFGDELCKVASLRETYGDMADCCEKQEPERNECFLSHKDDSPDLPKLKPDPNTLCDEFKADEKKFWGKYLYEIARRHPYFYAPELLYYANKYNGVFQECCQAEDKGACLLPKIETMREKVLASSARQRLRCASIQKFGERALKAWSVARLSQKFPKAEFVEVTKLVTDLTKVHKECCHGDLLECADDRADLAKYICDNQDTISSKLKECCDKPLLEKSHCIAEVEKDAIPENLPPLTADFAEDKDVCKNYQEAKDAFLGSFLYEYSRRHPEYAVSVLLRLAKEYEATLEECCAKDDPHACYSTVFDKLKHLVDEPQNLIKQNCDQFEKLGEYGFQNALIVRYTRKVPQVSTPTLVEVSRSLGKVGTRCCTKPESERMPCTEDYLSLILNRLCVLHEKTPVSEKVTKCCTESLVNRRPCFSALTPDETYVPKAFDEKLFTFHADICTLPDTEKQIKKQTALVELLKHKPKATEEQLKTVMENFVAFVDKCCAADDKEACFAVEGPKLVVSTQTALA

Row | Binder | EC50 (read off the curve) [1] [µg/mL] | binding result (BSA)
1 | T13 (antibody, V domains shown, The digit 1 is dropped in many places of the text; also called mAb T13) VH: EVQLVESGGGLVQPGGSLRLSCAASGFIFSKHDMYWVRQRPGKGLEWVSRIGDAGDTYYAGSVKGRFTIFRENAKNTLYFQMNRLTDGDTAVYYCGRGMAVAGFPLDVWGRGTRVTVTS VL: EIVMTQSPATLSVSPGERATLSCRASQNIHINLAWYQQKPGQAPRLIIYAASTRAAGIPARFSASGSGTEFTLTISSLQSEDFAVYYCQQFNPWSPWTFGQGTKVEVK | ~2 | 
2 | T28 (antibody, V domains shown) VH: QVQLQESGPGLVKPSETLSLSCAVSGGSIRGYSWSWIRQPPGKGLEWIADMLYTGTTTFNPSLKSRVTISVDTSKNQFSLKLTSVTAADTAVYYCARGPTVSGPIVVDYWGPGTLVTVSS VL: NFMLTQPHSVSESPGKTVTISCTGSSGSIASNYVQWYQQRPGSAPTTLIYEDKQRPSGVPDRFSGSIDSSTNSASLTISGLKTEDEADYYCQSFDSSNRWVFGGGTKVTVL |  | no binding (tested: 100 nM)
3 | T29 (antibody, V domains shown) VH: QLQLQESGPGLVKPSETLSLTCTVSGGSISSSSYYWGWIRQPPGKGLEWIGSLSYTGSTYYNPSLKSRVTISLDTSKNQFSLKLSSVTAADTAVYYCARESGSGGTHTDSWGQGTLVSVSS VL: QSVLTQPPSVSAAPGQKVTISCSGSSSNIGNNYVSWYQQLPGTAPKLLIYDNNKRPSGIPDRFSGSKSGTSATLGISGLQTGDEADYYCGTWDSSLSAWVFGGGTKLTVL |  | no binding (tested: 100 nM)
4 | T14 (antibody, human IgG1, V domains shown) VH: EVQLVESGGGLVQPGGSLRLSCAVSGFTFNNYWMTWVRQAPGKGLEWVANIKGDGSEKTYVDSVKGRFTVSRDNANNSLHLQMKSLRAEDTAVYYCARVGGGDYYDSSGYYWLDTWGQGTLVTVSS VL: not shown |  | no binding (tested: 100 nM)
5 | T15 (antibody, human IgG1, V domains shown) VH: EVQLVESGGGLVQPGGSLRLSCAASGFTFNNYWMTWVRQAPGKGLEWVANVNQDGNEKNYVDSVRGRFTISRDNAKNSLHLQMKSLISDDTAVYYCARVGGGDYYDSSGYYWFDTWGQGALVTVSS VL: not shown |  | no binding (tested: 100 nM)
6 | T6 (antibody, V domains shown) VH: QVQLQQSGPGLVKPSQTLSLTCAISGDSVSSNSAAWNWIRQSPSRGLEWLGRTYYRSRWYSDYAFSVRSRIIVKADTSRNLFSLQLNSMTPEDTAIYYCARDLGIAAADWFDSWGQGTLVTVSS VL: EIVMTQSPATLSVSPGDRATLSCRASQSVSNRLAWYQQKPGQAPRLLIYDASTRATDIPARFSGSGSGTEFTLTISSLQSEDFAIYFCHQYHNWPGFGPGTKLEIK |  | no binding (tested: 100 nM)
7 | T4 (antibody, V domains shown) VH: QVQLVQSGGEVKKPGASAKVSCKTSGFTFTSYGISWVRQAPGQGLEWMGWINTYNGNTKYAQRLQGRVSMTTDTSTNTAYMELRSLRSDDTAVYYCARGQGRYGDYIYNHWGQGTLVIVSS VL: DIQMTQSPSTLSASVGDRVTITCRASQIISSWVAWYQQRPGKAPKLLIFDASILESGVPSRFSGSATGTEFSLTISGLQPDDFATYYCQHYNDFPLSFGGGTKVEIK |  | no binding (tested: 100 nM)
8 | T5 (antibody, V domains shown) VH: QVQLVESGGGVVQPGRSLRLSCAASGFTFSSHAMHWVRQAPGKGLQWVALISYDGYNKYYAESVQGRFTLSRDNSKNTLYLQMNSLRAEDTAVYYCARDRDSSGYIFDYWGQGTLVTVSS VL: DIQMTQSPSSLSASVGDRVTITCQASQDISNYLNWYQQKPGKAPKVLIYDASNLERGVPSRFSGSGSGTAFTFTISSLQPEDIATYYCQQYDNLPSFGGGTKVEIK |  | no binding (tested: 100 nM)
9 | T24 (antibody, V domains shown) VH: QLQLQESGSGLVKPSQTLSLTCAVSGGSISSSDYSWSWIRQPPGKGLEWIGYIYHSGNTYYNPSVKSRVTISLDSSKNHFSLTLTSVTAADTAIYYCARDPGGNSGWFDPWGQGALVTVSS VL: SYELTQPTSVSVSPGQTARITCSGDALPSQYAYWYQQKPGQAPILIIYKDNKRPSGIPERFSGSSSGTRVTLTISGVQPEDEADYYCQSADRSGRYVFGTGTRVPVL |  | no binding (tested: 100 nM)
10 | T1 (antibody, V domains shown) VH: EVQLVESGGGLEQPGRSLRLSCAASGFSFGDNAMTWFRQAPGKGLEWVGIIRAKGYGGTTEYAASVKGRFTISRDDSKSIAFLQMNNVKVEDTGVYYCAKYASGWEVGFDPWGQGTLVTVSS VL: AIQMTQSPSSLSASVGDRVTITCRASQFIRNDLGWYQQKPGRAPKLLIYAASGLHSGVPARFSGNGSATDFTLTITSLQPEDFATYYCLQDYNFPWTFGQGTKVEIK |  | no binding (tested: 100 nM)
11 | T18 (antibody, V domains shown) VH: EVQLVESGGGLVQPGGSLRLSCAASGFTFSSYWMTWVRQAPGKGLEWVANIKPDGSEKNYVDSVKGRFTISRDNAENSLYLQMNSLRAEDTAVFYCARDLRYCSSTSCSPALDYWGQGTLLTVSS VL: DIQMTQSPSSLSASVGDRVTITCRASQSIASYLNWYQQKPGRAPKLLIYAASTSGVPSRFSGSGSGTDFTLTISSLQPEDFATYYCQQSYTTPRTFGQGTKVEIK |  | no binding (tested: 100 nM)
12 | T2 (antibody, V domains shown) VH: QVQLVQSGAEVKKPGASVNVSCKASGYNFKAYGVGWVRQAPGQGLEWMGWITPYNGKTNYAQKIQGRVTMTTDTSTTTAYMELRSLQPDDTAMYFCARTPAALASFDYWSQGTLVTVSS VL: DIQMTQSPSTLSASVGDRVTITCRASQSISSWLAWYQQKAGKAPKLLIFDASTLQSGVPSRFSGSGSGTEFSLTISSLQPDDFATYYCQQYYSYSTFGQGTKVEIR |  | no binding (tested: 100 nM)
13 | T20 (antibody, V domains shown) VH: QVQLQESGPGLLKPSQTLSLTCTVSGAFLNSGGYYWTWIRQHPGKGLEWIGYIYYSGTTYYNPSLKSRVTISVDTSKNQFSLNVNSVIAADTAVYYCARAPRIPFGEVIGGAAFDVWGQGTTVIVSS VL: EIVLTQSPGTLSLSPGERATLSCRASQSVTSNFVGWYQQKPGQAPRLLIYAASSRPTGIPERFSGSGSGTDFTLTISRLEPEDFAVYYCEQYGSSPRTFGPGTKVEIK |  | no binding (tested: 100 nM)
14 | T19 (antibody, V domains shown) VH: EVQLLESGGGLVQPGGSLRLSCAASGFTFDNYGMSWVRQAPGKGLEWVSVISSGGVGTYYADSVKGRFIISRDNAKNTLYLQMNSLRAEDTAVYYCAKDLLRYESSGYSPWGQGTLVTVSS VL: EIVLTQSPATLSLSPGDRATLSCRASQSVNTYLAWYQHKPGQAPRLLIYDASKRATGIPARFSGSGSGTDFTLTISSLEPEDFAVYYCQQRANRPPLTFGGGTKVEIK |  | no binding (tested: 100 nM)
15 | T21 (antibody, V domains shown) VH: QVQLQESGPGLVKPSQTLSLTCTVSGGSFSNSNYYWSWIRQPAGKGLEWIGHIYASAITHYNPSLKSRVTISKDTSKNQFSLNLRSVTAADTAVYFCARGFRLAAEAYYHGMDVWGQGTTVTVSS VL: DIQMTQSPSSLSASVGDRVTITCRASQSINNFLNWYQQKPGKAPKLLIYGASSLQSGVPSRFSASGSGTDFSLTISGLIPEDFAIYYCQQSDTTPWTFGQGTKVDIK |  | no binding (tested: 100 nM)
16 | T25 (antibody, V domains shown) VH: EVQLVESGGGLVKPGGSLRLSCAPSGFIFSNTWMSWVRQAPGKGLEWVGHIKSKADGGTTDYAAPVKGRFTISRDDSRNTLYLQMDSLKTEDTGVYYCTTGWYSTLDYWGQGTLVTVSS VL: QSVLTQPPSASGTPGQRVTISCSGSTSNVGTNYVYWCQQFPGAAPKLLMYRNDRRPSGVPDRFSGSKSGTSASLAISGLRSEDEADYYCAAWDDSLSSWVFGGGTKLTVL |  | no binding (tested: 100 nM)
17 | T17 (antibody, V domains shown) VH: EVQLVESGGGLVQPGGSLTLSCTASGFTYFGFAMTWVRQPPGKGLEWISSINLLSGTTYYVDSVKGRFTISRDNSKNTVFLQMKGLTAEDTAVYYCAKVGATQDLHYFDFWGQGTLVTVSS VL: DIQMTQSPSTLSASVGDRVTITCRASQSVYRWLAWYQQKPGEAPKLLVYGAFSLQSGVPPRFSGSGYGTEFTLTISSLQPDDFATYYCQQYNSHSTFGQGTKVEVK |  | no binding (tested: 100 nM)
18 | T22 (antibody, V domains shown) VH: QVQLVQSGAEVKKPGSSVKVACKASGGTFSRSAISWVRQAPGQGLEWMGGIIRIFNTADYAQKFQGRVTMSADESTSTAYMELSSLRSEDTAVYYCATSSLSDIVVAEGAFVDHYFGMDVWGQGTTVTVSS VL: not shown |  | no binding (tested: 100 nM)
19 | T26 (antibody, V domains shown) VH: QVQLVQSGSEVKKPGASVKVSCKASGYTFTSNGISWVRQAPGQGLEWMGWISAYNGNTNYAQKFQGRVSLTTDTSTSTAYMELRNLTSDDTARYYCARSRGHYGDYLYGYWGQGTLVTVSS VL: QSVLTQPPSVSGAPGQRVTISCTGSSSNIGAGYDVHWYQQLPGTAPKLLIHGNSNRPSGVPDRFSGSKSGTSASLAITGLQAEDEADYYCQSFDSSLSGSVVFGGGTKLTVL |  | no binding (tested: 100 nM)
